Experimental data as given in patent publication US6348572B1, “Ligands for phosphatase binding assay” (Merck Frosst Canada & Co., priority 1996, dated 2002).
Residue numbers refer to the chain shown, from its start. Square brackets hold non-standard residues; d marks the D form. Ends that are not written are not given here. Peptide text beside a SMILES is read from it. * marks the point of attachment. F2Pmp = N[C@@H](Cc1ccc(C(F)(F)P(=O)(O)O)cc1)C(=O)O; Bz = O=C(c1ccccc1)*

Legend:
[1] = target: Human recombinant PTP1B, containing amino acids 1-320, Cys215Ser mutant, fused to GST enzyme (glutathione S-transferase) (human) (UniProt P18031); assay: SPA raw counts, mutant GST-PTP1B with tritiated BzN-EJJ-CONH2, no anti-GST antibody, no cold tripeptide, first duplicate
[2] = target: Human recombinant PTP1B, containing amino acids 1-320, Cys215Ser mutant, fused to GST enzyme (glutathione S-transferase) (human) (UniProt P18031); assay: SPA raw counts, mutant GST-PTP1B with tritiated BzN-EJJ-CONH2, no anti-GST antibody, no cold tripeptide, second duplicate
[3] = target: Human recombinant PTP1B, containing amino acids 1-320, Cys215Ser mutant, fused to GST enzyme (glutathione S-transferase) (human) (UniProt P18031); assay: SPA raw counts, mutant GST-PTP1B with tritiated BzN-EJJ-CONH2, anti-GST antibody present, no cold tripeptide, second duplicate
[4] = target: Human recombinant PTP1B, containing amino acids 1-320, Cys215Ser mutant, fused to GST enzyme (glutathione S-transferase) (human) (UniProt P18031); assay: SPA raw counts, mutant GST-PTP1B with tritiated BzN-EJJ-CONH2, anti-GST antibody present, no cold tripeptide, first duplicate
[5] = target: T1, GST-PTP1B Mutated enzyme (Ser215) (Homo sapiens, UniProt P18031, C215S); assay: GST-PTP1B SPA binding assay, mutated (Ser215) enzyme; competition with tritiated BzN-EJJ-CONH2
T1 construct: made in house; host or cells: bacteria (DH5α named for the transformation; E. coli stated for the wild-type fusion)
T1 sequence (P18031 1-320 C215S): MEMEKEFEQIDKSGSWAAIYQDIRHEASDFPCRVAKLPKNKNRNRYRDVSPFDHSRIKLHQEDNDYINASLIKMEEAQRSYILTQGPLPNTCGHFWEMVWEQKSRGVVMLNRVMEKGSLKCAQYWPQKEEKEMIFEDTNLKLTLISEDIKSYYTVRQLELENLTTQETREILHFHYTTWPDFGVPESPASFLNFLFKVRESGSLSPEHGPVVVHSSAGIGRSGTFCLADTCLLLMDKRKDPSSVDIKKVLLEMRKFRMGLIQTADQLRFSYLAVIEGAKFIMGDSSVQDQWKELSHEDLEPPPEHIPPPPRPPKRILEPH
Procedure: (§1) Enzyme: Human recombinant PTPLB, containing ammo acids 1-320, (Seq. ID No. 1) fused to GST enzyme (glutathione S-transferase) purified by affinity chromatography. Wild type (Seq. ID No. 1) contains active site cysteine(215), whereas mutant (Seq. ID No. 7) contains active site serine(215).
(§2) Tritiated peptide: Bz-NEJJ-CONH2, Mwt. 808, empirical formula, C32H32T2O12P2F4
(§3) To each well is added the following solutions @ 25° C. in the following chronological order:
(§4) 1. 110 μl of assay buffer.
(§5) 2. 10 μl. of 50 nM tritiated BzN-EJJ-CONH2 in assay buffer (1X) @ 25° C.
(§6) 3. 10 μl. of testing compound in DMSO at 10 different concentrations in serial dilution (final DMSO, about 5% v/v) in duplicate @ 25° C.
(§7) 4. 10 μl. of 3.75 μg/ml purified human recombinant GST-PTP1B in enzyme dilution buffer.
(§8) 5. The plate is shaken for 2 minutes.
(§9) 6. 10 μl. of 0.3 μg/ml anti-glutathione S-transferase (anti-GST) rabbit IgG (Molecular Probes) diluted in antibody dilution buffer @ 25° C.
(§10) 7. The plate is shaken for 2 minutes.
(§11) 8. 50 μl. of protein A-PVT SPA beads (Amersham) @ 25° C.
(§12) 9. The plate is shaken for 5 minutes. The binding signal is quantified on a Microbeta 96-well plate counter.
(§13) 10. The non-specific signal is defined as the enzyme-ligand binding in the absence of anti-GST antibody.
11. […]
12. Percentage of inhibition is calculated accordingly. […]

[6] = target: T2, GST-PTP1B Non-Mutated (Cys215) (Homo sapiens, UniProt P18031); assay: GST-PTP1B SPA binding assay, non-mutated (Cys215) enzyme; competition with tritiated BzN-EJJ-CONH2; conditions: for IC50: non-mutated (Cys215) GST-PTP1B
T2 construct: made in house; host or cells: E. coli
T2 sequence (P18031 1-320): T1 sequence (P18031 1-320 C215S) with S215C
Procedure: as §1, §2, §3, §4, §5, §6, §7, §8, §9, §10, §11, §12, §13
11. 100% binding activity is defined as the enzyme-ligand binding in the presence of anti-GST antibody, but in the absence of the testing ligands with the non-specific binding subtracted.
12. Percentage of inhibition is calculated accordingly.
13. IC50 value is approximated from the non-linear regression fit with the 4-parameter/multiple sites equation (described in: “Robust Statistics”, New York, Wiley, by P. J. Huber (1981) and reported in nM units.

[7] = target: T3, PTP1B (Homo sapiens, UniProt P18031); assay: inhibition of PTP1B (stated in text, method not given); format: biochemical; conditions: read-out: active inhibitor of PTP1B (potency, type not given)
T3 sequence (P18031 1-435): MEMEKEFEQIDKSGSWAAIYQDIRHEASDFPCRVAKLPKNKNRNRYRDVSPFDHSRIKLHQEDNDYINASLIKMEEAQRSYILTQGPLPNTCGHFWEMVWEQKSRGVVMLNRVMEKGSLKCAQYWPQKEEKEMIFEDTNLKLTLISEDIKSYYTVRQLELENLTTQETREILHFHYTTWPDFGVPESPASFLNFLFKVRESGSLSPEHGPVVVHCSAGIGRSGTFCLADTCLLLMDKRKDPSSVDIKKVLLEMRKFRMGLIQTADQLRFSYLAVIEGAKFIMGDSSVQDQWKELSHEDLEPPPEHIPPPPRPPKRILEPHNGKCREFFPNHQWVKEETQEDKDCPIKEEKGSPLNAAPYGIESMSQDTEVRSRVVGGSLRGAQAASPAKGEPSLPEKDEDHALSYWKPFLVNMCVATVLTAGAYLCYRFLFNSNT

[8] = target: Human recombinant PTP1B, containing amino acids 1-320, fused to GST enzyme (glutathione S-transferase), wild type (active site cysteine 215) (human) (UniProt P18031); assay: GST-PTP1B SPA binding assay, competition with tritiated BzN-EJJ-CONH2, non-mutated (Cys215) enzyme
[9] = target: Human recombinant PTP1B, containing amino acids 1-320, Cys215Ser mutant, fused to GST enzyme (glutathione S-transferase) (human) (UniProt P18031); assay: SPA raw counts of bound tritiated BzN-EJJ-CONH2 on mutant GST-PTP1B with cold tripeptide, second duplicate; number split over r12 and r13
[10] = target: Human recombinant PTP1B, containing amino acids 1-320, Cys215Ser mutant, fused to GST enzyme (glutathione S-transferase) (human) (UniProt P18031); assay: SPA raw counts of bound tritiated BzN-EJJ-CONH2 on mutant GST-PTP1B with cold tripeptide, first duplicate; number split over r10 and r11
[11] = target: Human recombinant PTP1B, containing amino acids 1-320, Cys215Ser mutant, fused to GST enzyme (glutathione S-transferase) (human) (UniProt P18031); assay: GST-PTP1B SPA binding assay, competition with tritiated BzN-EJJ-CONH2, mutated (Ser215) enzyme
[12] = target: T4, Human recombinant PTP1B, containing amino acids 1-320, Cys215Ser mutant, fused to GST enzyme (glutathione … (human, UniProt P18031 1-320)); assay: as above
T4 construct: ID No. 7 (cDNA); the protein in the assay has Ser at 215; also called GST-PTP-1B Cys215Ser mutant; mutant GST-PTP1B; not shown: N-terminal glutathione S-transferase carrier and the pGEX-2T linker residues
T4 sequence: T1 sequence (P18031 1-320 C215S)

[13] = target: T5, Human recombinant PTP1B, containing amino acids 1-320, fused to GST enzyme (glutathione S-transferase), wild … (human, UniProt P18031 1-320); assay: GST-PTP1B SPA binding assay, competition with tritiated BzN-EJJ-CONH2, non-mutated (Cys215) enzyme
T5 construct: ID No. 1, which is the DNA strand; GST is N-terminal (pGEX-2T); also called GST-PTP1B; GST-PTP-1B fusion protein; not shown: N-terminal glutathione S-transferase carrier and the pGEX-2T linker residues
T5 sequence: T1 sequence (P18031 1-320 C215S) with S215C
Procedure: 1. 110 μl of assay buffer. 2. 10 μl. of 50 nM tritiated BzN-EJJ-CONH_2 in assay buffer (1X) @ 25° C. 3. 10 μl. of testing compound in DMSO at 10 different concentrations in serial dilution (final DMSO, about 5% v/v) in duplicate @ 25° C. 4. 10 μl. of 3.75 μg/ml purified human recombinant GST-PTP1B in enzyme dilution buffer. 5. The plate is shaken for 2 minutes. 6. 10 μl. of 0.3 μg/ml anti-glutathione S-transferase (anti-GST) rabbit IgG (Molecular Probes) diluted in antibody dilution buffer @ 25° C. 7. The plate is shaken for 2 minutes. 8. 50 μl. of protein A-PVT SPA beads (Amersham) @ 25° C. 9. The plate is shaken for 5 minutes. The binding signal is quantified on a Microbeta 96-well plate counter. 10. The non-specific signal is defined as the enzyme-ligand binding in the absence of anti-GST antibody. 11. 100% binding activity is defined as the enzyme-ligand binding in the presence of anti-GST antibody, but in the absence of the testing ligands with the non-specific binding subtracted. 12. Percentage of inhibition is calculated accordingly.

Work on “N-(3,5-Ditritio)benzoyl-L-glutamyl-[4-phosphono(difluoromethyl)]-L-phenylalanyl-[4-phosphono(difluoromethyl)]-L-phenylalanineamide (peptide)” yielded a Counts (dpm), no antibody (- control), non-specific signal [1] of 252 dpm, a Counts (dpm), no antibody (- control), non-specific signal [2] of 304 dpm and a Counts (dpm), antibody (+ control), no competitor [3] of 6380 dpm. It also gave a Counts (dpm), antibody (+ control), no competitor [4] of 5650 dpm.

Cc1cc(Cl)c2c(c1O)C(=O)C=CC2=O [Quinone, reference compound] was tested, and the IC50 ([5]; mutated (Ser215) GST-PTP1B) was > 100000 nM and the IC50 [6] was 4000 nM.

With NC(=O)[C@H](Cc1ccc(C(F)(F)P(=O)(O)O)cc1)NC(=O)[C@H](Cc1ccc(C(F)(F)P(=O)(O)O)cc1)NC(=O)[C@H](CCC(=O)O)NC(=O)c1ccccc1 [Example 1, N-Benzoyl-L-glutamyl-[4-phosphono(difluoromethyl)]-L-phenylalanyl-[4-phosphono(difluoromethyl)]-L-phenlalanine Amide] (Bz-Glu-[F2Pmp]-[F2Pmp]-NH2) the IC50 [7] was 5 nM and the IC50 [6] was 14 nM.

In the case of COc1cc(OC)c(OC)cc1CC/N=C\Cc1ncc[nH]1 [Imine, reference compound], the inhibition at 2 µM ([5]; at 2 μM, mutated (Ser215)) is reported as 10% and the inhibition at 2 µM ([6]; at 2 μM, non-mutated (Cys215)) is reported as 67%.

Molecule “N-Benzoyl-L-glutamyl-[4-phosphono(difluoromethyl)]-L-phenylalanyl-[4-phosphono(difluoromethyl)]-L-phenylalanineamide (peptide)” has an IC50 [8] of 14 nM, a Counts (dpm) at 62.5 nM tripeptide [9] of 1110 dpm and a Counts (dpm) at 125 nM tripeptide [9] of 588 dpm. It also gave a Counts (dpm) at 250 nM tripeptide [9] of 273 dpm, a Counts (dpm) at 125 nM tripeptide [10] of 873 dpm and a Counts (dpm) at 250 nM tripeptide [10] of 288 dpm. It also gave an IC50 [11] of 8 nM.

B1: DADE(F2PMP)L hexapeptide (T. Burke et al. Biochem. Biophys. Res. Comm. 204, 129, (1994)) (peptide)
peptide: DADE[F2Pmp]L
notes: Terminal caps, if any, stand only in a structure drawing that is not in the text; also called hexamer peptide containing the phosphotyrosyl mimetic F2Pmp
Work on B1 yielded an IC50 [12] of 100 nM and an IC50 [13] of 400 nM.
